{"source": "IntAct's records for PubMed 21108945", "key": {"nbn_human NBN [1]": {"biological_target": "nbn_human NBN (UniProt O60934)", "sequence (O60934 whole entry)": "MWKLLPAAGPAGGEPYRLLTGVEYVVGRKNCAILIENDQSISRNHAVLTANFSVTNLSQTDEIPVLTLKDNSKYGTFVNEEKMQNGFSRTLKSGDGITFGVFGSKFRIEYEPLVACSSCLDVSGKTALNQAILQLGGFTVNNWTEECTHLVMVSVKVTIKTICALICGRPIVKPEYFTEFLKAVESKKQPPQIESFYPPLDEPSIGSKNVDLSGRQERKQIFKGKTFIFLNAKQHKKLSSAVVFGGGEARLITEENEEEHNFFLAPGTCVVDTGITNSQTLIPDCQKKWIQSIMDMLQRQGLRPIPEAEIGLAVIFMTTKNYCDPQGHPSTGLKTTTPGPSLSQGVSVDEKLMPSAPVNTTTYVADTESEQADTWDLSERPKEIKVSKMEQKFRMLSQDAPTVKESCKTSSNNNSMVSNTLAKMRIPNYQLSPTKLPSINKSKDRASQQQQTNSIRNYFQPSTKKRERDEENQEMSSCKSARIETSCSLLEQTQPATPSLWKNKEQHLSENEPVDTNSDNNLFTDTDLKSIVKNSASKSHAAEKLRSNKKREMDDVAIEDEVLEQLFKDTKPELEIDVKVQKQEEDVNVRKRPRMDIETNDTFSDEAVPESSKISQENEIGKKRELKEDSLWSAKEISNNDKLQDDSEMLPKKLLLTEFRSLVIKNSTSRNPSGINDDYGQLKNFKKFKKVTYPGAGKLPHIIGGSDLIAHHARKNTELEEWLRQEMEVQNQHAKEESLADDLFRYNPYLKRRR"}, "nbn_human NBN [2]": {"biological_target": "nbn_human NBN (UniProt O60934)", "remark": "listed apart in the source"}}}
{"substance": "Histone acetyltransferase p300 (Homo sapiens), Q09472 S106A", "values": [{"measurement": "effect of a mutation on the interaction", "setting": "nbn_human NBN [1]", "result": "decreasing interaction"}, {"measurement": "effect of a mutation on the interaction", "setting": "nbn_human NBN [2]", "result": "disrupting interaction"}]}
